# Test results: patent US8716437B2 (priority 2007, dated 2014)
# Where no end group is shown, it is not given here.
# Legend:
# [1] = target: KcsA carrying a segment of the Kv1.3 pore loop (KcsA-1.3)
# [2] = target: Kv1.1 K+ channel, species not stated
# [3] = target: Kv1.2 K+ channel, species not stated
# [4] = target: Kv1.3 K+ channel, wild-type, species not stated
# [5] = target: BK channel, species not stated
# Rattus Kv1.1 = Rattus Kv1.1 (Rattus, UniProt P10499); experiment: cell-based or functional assay
# [6] = target: Mus BK (mouse big conductance calcium-activated K channel) (Mus, UniProt Q08460); experiment: cell-based or functional assay
# human Kv1.3 = human Kv1.3 (Homo, UniProt P22001); experiment: cell-based or functional assay
# Rattus Kv1.2 = Rattus Kv1.2 (Rattus, UniProt P63142); experiment: cell-based or functional assay
# fasciculin-2 phage, sequence (P0C1Z0 whole entry): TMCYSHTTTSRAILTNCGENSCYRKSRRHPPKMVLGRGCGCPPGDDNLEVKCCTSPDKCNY
molecule,measurement,setting,value
Dendroaspis natriuretic peptide (DNP) phage (from UniProt P28374),Output (% Ligands),[1],0%
Kaliotoxin-1 (KTX) (peptide),approximate IC50,[2],0.1 nM
same,approximate IC50,[3],1.4 nM
same,approximate IC50,[4],0.5 nM
same,approximate IC50,[5],5 nM
agitoxin-2 (AgTx2) (peptide),approximate IC50,[2],0.04 nM
same,approximate IC50,[3],26.8 nM
same,approximate IC50,[4],0.004 nM
same,approximate IC50,[5],1150 nM
charybdotoxin (CTX) (peptide),approximate IC50,[2],1500 nM
same,approximate IC50,[3],5.6 nM
same,approximate IC50,[4],2.5 nM
same,approximate IC50,[5],3 nM
fasciculin-2 phage (from UniProt P0C1Z0),Output (% Ligands),[1],0%
sarafotoxin S6b phage (from UniProt P13208),Output (% Ligands),[1],0%
ZFTNVSCTTSKECWSVCQRLHNTSRGKCMNKKCRCYS (Z printed as first residue in Table 2) [charybdotoxin (CTX)],Ki (block of channel current),Rattus Kv1.1,> 1000 nM
same,Ki (block of channel current),[6],5 nM
GVEINVKCSGSPQCLKPCKDAGMRFGKCMNRKCHCTPK [Kaliotoxin-1 (KTX)],Ki (block of channel current),human Kv1.3,0.008 nM
same,Koff (block of channel current),human Kv1.3,0.007 [s]^-1
same,Kon (block of channel current),human Kv1.3,8e+08 [M · s]^-1
same,Ki (block of channel current),Rattus Kv1.1,1.1 nM
same,Koff (block of channel current),Rattus Kv1.1,0.009 [s]^-1
same,Kon (block of channel current),Rattus Kv1.1,3e+07 [M · s]^-1
same,Ki (block of channel current),Rattus Kv1.2,20 nM
same,Koff (block of channel current),Rattus Kv1.2,0.21 [s]^-1
same,Kon (block of channel current),Rattus Kv1.2,1.3e+07 [M · s]^-1
same,Ki (block of channel current),[6],1.6 nM
same,Koff (block of channel current),[6],0.0211 [s]^-1
same,Kon (block of channel current),[6],21000 [M · s]^-1
GVPINVSCTGSPQCIKPCKDAGMRFGKCMNRKCHCTPK (ends and bridges not checked; cysteine pairing not given here) [agitoxin-2 (AgTx2)],Ki (block of channel current),human Kv1.3,0.041 nM
same,Ki (block of channel current),Rattus Kv1.1,0.17 nM
same,Ki (block of channel current),Rattus Kv1.2,3.4 nM
